Where a chain is given by its changes, count along the chain named. Names may count otherwise. “And” between values parts separate entries of the source, which are not always exact repeats. Equal values may be shown once.
B1: BMS3h-275 (other)
VH: EVQLLESGGGLVQPGGSLRLSCAASGFTFTRYQMGWVRQAPGKGLEWVSVINVWGSSTYYADSVKGRFTISRDNSKNTLYLQMNSLRAEDTAVYYCAKMSGKFAYWGQGTLVTVSS
B2: BMS3h-309 (other)
VH: EVQLLESGGGLVQPGGSLRLSCAASGFTFSGHDMSWVRQAPGKGLEWVSAISPHGTHTYYADSVKGRFTISRDNSKNTLYLQMNSLRAEDTAVYYCAKGIRGWIGHDTQPFDYWGQGTLVTVSS
B3: DMS0681 DOM7h-11-90-(G4S)5-BMS3h-56-258 (bispecific antibody)
chain: DIQMTQSPSSLSASVGDRVTITCRASRPIGTMLSWYQQKPGKAPKLLILAFSRLQSGVPSRFSGSGSGTDFTLTISNLQPEDFATYYCAQAGTHPTTFGQGTKVEIKRGGGGSGGGGSGGGGSGGGGSGGGGSEVQLLESGGGLVQPGGSLRLSCAASGFTFRDYEMWWVRQAPGKGLERVSAINPQGTRTYYADSVKGRFTISRDNSKNTLYLQMNSLRAEDTAVYYCAKLPFYFHEWGQGTLVTVSS
B4: DMS0679 DOM7h-11-90-G4S-BMS3h-56-258 (bispecific antibody)
chain: DIQMTQSPSSLSASVGDRVTITCRASRPIGTMLSWYQQKPGKAPKLLILAFSRLQSGVPSRFSGSGSGTDFTLTISNLQPEDFATYYCAQAGTHPTTFGQGTKVEIKRGGGGSEVQLLESGGGLVQPGGSLRLSCAASGFTFRDYEMWWVRQAPGKGLERVSAINPQGTRTYYADSVKGRFTISRDNSKNTLYLQMNSLRAEDTAVYYCAKLPFYFHEWGQGTLVTVSS
B5: BMS3h-240 (other)
VH: EVQLLESGGGLVQPGGSLRLSCAASGFTFWVYDMRWVRQAPGKGLEWVSTISATGVHTYYADSVKGRFTISRDNSKNTLYLQMNSLRAEDTAVYYCAKYPPAGRFDYWGQGTLVTVSS
B6: BMS3h-257 (other)
VH: EVQLLESGGGLVQPGGSLRLSCAASGFTFQNYQMAWVRQAPGKGLEWVSTISGTGKNTYYADSVKGRFTISRDNSKNTLYLQMNSLRAEDTAVYYCAKTPQNYFSVRRFDYWGQGTLVTVSS
B7: BMS3h-312 (other)
VH: EVQLLESGGGLVQPGGSLRLSCAASGFTFDDEKMLWVRQAPGKGLEWVSSISVSGLHTYYADSVKGRFTISRDNSKNTLYLQMNSLRAEDTAVYYCAKEEAGSWSFDYWGQGTLVTVSS
B8: DMS0683 BMS3h-56-258-ASTSGPS-DOM7h-11-90 (bispecific antibody)
chain: EVQLLESGGGLVQPGGSLRLSCAASGFTFRDYEMWWVRQAPGKGLERVSAINPQGTRTYYADSVKGRFTISRDNSKNTLYLQMNSLRAEDTAVYYCAKLPFYFHEWGQGTLVTVSSASTSGPSDIQMTQSPSSLSASVGDRVTITCRASRPIGTMLSWYQQKPGKAPKLLILAFSRLQSGVPSRFSGSGSGTDFTLTISNLQPEDFATYYCAQAGTHPTTFGQGTKVEIKR
B9: BMS3h-202-1 (other)
VH: EVQLLESGGGLVQPGGSLRLSCAASGFTFPTAEMLWVRKAPGKGLEWVSSISASGGSTYYADSVKGRFTISRDNSKNTLYLQMNSLRAEDTAVYYCAKEPVSYVATFDYWGQGTLVTVSS
B10: DMS0682 BMS3h-56-258-TVA-DOM7h-11-90 (bispecific antibody)
chain: EVQLLESGGGLVQPGGSLRLSCAASGFTFRDYEMWWVRQAPGKGLERVSAINPQGTRTYYADSVKGRFTISRDNSKNTLYLQMNSLRAEDTAVYYCAKLPFYFHEWGQGTLVTVSSTVADIQMTQSPSSLSASVGDRVTITCRASRPIGTMLSWYQQKPGKAPKLLILAFSRLQSGVPSRFSGSGSGTDFTLTISNLQPEDFATYYCAQAGTHPTTFGQGTKVEIKR
B11: BMS3h-217-1 (other)
VL: NIQMTQSPSSLSASVGDRVTITCRASHFIGTLLTWYQHKPGKAPKLLITYGSLLQSGVPSRFSGSGSGTDFTLTISSLQPEDFATYYCGQGVLWPATFGQGTKVEIKR
B12: BMS3h-217-16 (other)
VL: B11 VL with N1D, T34S, H38Q, G41R, A96P
B13: BMS3h-217-6 (other)
VL: B11 VL with N1D, T34S, H38Q, P44T, A96P
B14: BMS3h-217-8 (other)
VL: B11 VL with N1D, T34S
B15: BMS3h-217-14 (other)
VL: B11 VL with N1D, M4L, T34S, H38Q, P44T, A96P
B16: BMS3h-217-23 (other)
VL: B11 VL with N1D, T31S, T34S, H38V, K103T
B17: BMS3h-217-15 (other)
VL: B11 VL with N1D, S12Y, A25V, T34S, H38Q, T74S, A96P, R108Q
B18: BMS3h-217-2 (other)
VL: B11 VL with N1D, T34S, H38Q, G41R, Q79H, A96P
B19: BMS3h-231 (other)
VH: EVQLLESGGGLVQPGGSLRLSCAASGFTFSAYNMWWARQAPGKGLEWVSWINSTGSRTYYADSVKGRFTISRDNSKNTLYLQMNSLRAEDTAVYYCAKNWHRGRFDYWGQGTLVTVSS
B20: DMS0680 DOM7h-11-90-(G4S)3-BMS3h-56-258 (bispecific antibody)
chain: DIQMTQSPSSLSASVGDRVTITCRASRPIGTMLSWYQQKPGKAPKLLILAFSRLQSGVPSRFSGSGSGTDFTLTISNLQPEDFATYYCAQAGTHPTTFGQGTKVEIKRGGGGSGGGGSGGGGSEVQLLESGGGLVQPGGSLRLSCAASGFTFRDYEMWWVRQAPGKGLERVSAINPQGTRTYYADSVKGRFTISRDNSKNTLYLQMNSLRAEDTAVYYCAKLPFYFHEWGQGTLVTVSS
B21: BMS3h-233 (other)
VH: EVQLLESGGGLVQPGGSLRLSCAASGFTFAHYNMRWVRQAPGKGLEWVSTITKTGFRTYYADSVKGRFTISRDNSKNTLYLQMNSLRAEDTAVYYCAKAGQFDFDYWGQGTLVTVSS
B22: BMS3h-296 (other)
VH: EVQLLESGGGLVQPGGSLRLSCAASGFTFGAYPMYWVRQAPGKGLEWVSSIHKDGRITYYADSVKGRFTISRDNSKNTLYLQMNSLRAEDTAVYYCAKQGTPVDGFDYWGQGTLVTVSS
B23: BMS3h-287 (other)
VH: EVQLLESGGGLVQPGGSLRLSCAASGFTFTNYRMSWVRQAPGKGLEWVSAIDDLGVSTYYADSVKGRFTISRDNSKNTLYLQMNSLRAEDTAVYYCAKWRLKNSQPTDFDYWGQGTLVTVSS
B24: DMS0684 BMS3h-56-258-G4S-DOM7h-11-90 (bispecific antibody)
chain: EVQLLESGGGLVQPGGSLRLSCAASGFTFRDYEMWWVRQAPGKGLERVSAINPQGTRTYYADSVKGRFTISRDNSKNTLYLQMNSLRAEDTAVYYCAKLPFYFHEWGQGTLVTVSSGGGGSDIQMTQSPSSLSASVGDRVTITCRASRPIGTMLSWYQQKPGKAPKLLILAFSRLQSGVPSRFSGSGSGTDFTLTISNLQPEDFATYYCAQAGTHPTTFGQGTKVEIKR
B25: DMS0677 DOM7h-11-90-TVA-BMS3h-56-258 (bispecific antibody)
chain: DIQMTQSPSSLSASVGDRVTITCRASRPIGTMLSWYQQKPGKAPKLLILAFSRLQSGVPSRFSGSGSGTDFTLTISNLQPEDFATYYCAQAGTHPTTFGQGTKVEIKRTVAEVQLLESGGGLVQPGGSLRLSCAASGFTFRDYEMWWVRQAPGKGLERVSAINPQGTRTYYADSVKGRFTISRDNSKNTLYLQMNSLRAEDTAVYYCAKLPFYFHEWGQGTLVTVSS

Assays:
Assay in all cases: cell-based or functional assay
human CD40 [1] = target: T1, human CD40 (human, UniProt P25942 21-277)
Macaca fascicularis CD40 = target: T2, Macaca fascicularis CD40 (Macaca fascicularis (cynomolgus monkey), UniProt P25942 21-277 (human entry))
T2 chain: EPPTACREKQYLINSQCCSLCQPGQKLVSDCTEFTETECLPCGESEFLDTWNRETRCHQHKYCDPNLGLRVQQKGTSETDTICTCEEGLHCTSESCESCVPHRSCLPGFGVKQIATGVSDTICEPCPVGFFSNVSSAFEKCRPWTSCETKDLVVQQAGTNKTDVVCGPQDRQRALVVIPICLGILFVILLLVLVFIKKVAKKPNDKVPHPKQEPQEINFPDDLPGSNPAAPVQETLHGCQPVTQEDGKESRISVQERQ

human CD40 [2] = target: T1, human CD40; remark: listed apart in the source

Row | Binder | hIZCD40L-driven Human B Cell Proliferation EC50 (human CD40 [1]) [µM] | hIZCD40L-driven Cyno B Cell Proliferation EC50 (Macaca fascicularis CD40) [µM] | ICAM-1 Cell Assay EC50 (nM), 10% bovine serum (human CD40 [2]) [nM] | ICAM-1 Cell Assay EC50 (nM), 10% human serum (human CD40 [2]) [nM] | CHO-hCD40L-driven DC Activation IL-12 EC50 (human CD40 [1])
1 | B1 | 0.157 | > 7 | – | – | –
2 | B2 | 0.648 | 0.838 | – | – | –
3 | B3 | – | – | 43.6 | 53.3 | –
4 | B4 | – | – | 21.7 | 39.2 | –
5 | B5 | > 7 | > 7 | – | – | –
6 | B6 | 0.135 | > 7 | – | – | 0.704 µM
7 | B7 | 1.1 | > 7 | – | – | –
8 | B8 | – | – | 32.4 | 50.9 | –
9 | B9 | 0.192 | > 7 | – | – | –
10 | B10 | – | – | 10.2 | 94.8 | –
11 | B11 | 0.045 | 0.035 | – | – | –
12 | B12 | 0.005 | 0.007 | – | – | 1.12 µM
13 | B13 | 0.011 | 0.01 | – | – | –
14 | B14 | 0.033 | 0.014 | – | – | –
15 | B15 | 0.026 | 0.008 | – | – | –
16 | B16 | 0.016 | 0.015 | – | – | –
17 | B17 | 0.047 | 0.02 | – | – | –
18 | B18 | 0.008 | 0.007 | – | – | 0.335 µM
19 | B19 | 0.328 | > 7 | – | – | –
20 | B20 | – | – | 39.3 | 74.2 | –
21 | B21 | 0.184 | > 7 | – | – | 1.49 µM and > 2 µM
22 | B22 | 0.306 | > 7 | – | – | –
23 | B23 | 0.287 | 0.918 | – | – | –
24 | B24 | – | – | 37.9 | 74.3 | –
25 | B25 | – | – | 21.7 | 20.4 | –
